The data set is described as follows: soluble on expression in E. coli; label from the status in PepcDB or PDB records.
For “MAHHHHHHMNRSASLPSASPSLSTMRTITVALCASSKKHQQSFDALREAGKLHNERLLLMRQHSASRQAGCGDVSGEAGEASTAAPQEGCASGSRGMSSHSRSRRTSRATSEVLAHPARSRSTTEGSLSCAALSNCLFRFLSLNYDAQRHRMVLCIDGDIKEVHQSSAAAFAQDGSKANAQQSPSVDEHAGTDSTVRGEGEPSQSALMDEVDVVLHKVATFGTPVAIRALHQWYNGAQKRRSRQRRAPLIVVDPLEKVQLLMTRSMLCKLLNNVGDDGQPIALIPRTFVWDCPSDAACRHARRTNGSSAATPLGIHSFTSMEEQEARANGTAAEHWWIAKPDESTGAAFTHHLVMWLTRDADVSVPTAVKAALPTEACRFILQELYVYALPVVLKVYCVGSHISVKVNPTVSLLNYLWEHTRGSTLADVPVAMDSQDKAFFSTVASVSTSRSQPTLSAMTSSTDDDALPATSPTMNATNAAGAPPSPTELPQGTSSESASAEQSLIAWESMVVPVDYWNAFLAPGTPAYTAISKLAQDLSGDAGVGLSLYGFDLVLVPQYLAHTYQRKGARGIGRTEGATVRYEGVAPSLSKVAHRSADTAKPVQRIPASHSMRKLPGAGASAPPSPVSQLFRASDMFDLASGAPTSLLLDSIPVVIDVNYFPGYKGVAEVNQHMLELIALKSMHLQDGSSNRAWHADTATGAEAKKRRCSMM”, the “soluble on expression in E. coli” value is “not soluble”.

Take “MAHHHHHHMNYAAVINGPFSSNNGNNHYSRLGYTPNGYGPQPNTTEQNPQMVPYQTFNSAAGQPVNVYQQIPPTSASRDPRTNIHIGSKLFVGQVPAMTTEEQLRPVFEPYGELLEVKIMRDPLGRSKGSAWVRYETNEMAMNAINALHEKHTVPPQTNPLRVQFATPNSVRHQQLQARYAVELKVPMNQYNFGGQMGGGTQQSGMVMLRSGASPNVVPPISANVGGRYMSAPFGGGPMESSSIMSGPYTSSANCFDGVNSSGNRRDLYSPLEQPQGTAPQLYQQQQQQQRGGFSSPVVTPPSVYNQASSTRQPTARNNNTKSGGGISMGSFESGHGMVNPNSNGAPTMANEMSTLDAGIALWEARNNNGLQGQEPREAAARVRSGERKEE”: the “soluble on expression in E. coli” value is listed as “not soluble”.

Consider “MAHHHHHHMPGSELISGGWFREENDQWPGQAMSLRVEKVLYDAPTKFQHLTIFESDPKGPWGTVMALDGCIQVTDYDEFVYHEVLGHTSLCSHPKPERVLIIGGGDGGVLREVLRHGTVEHCDLVDIDGEVMEQSKQHFPQISRSLADPRATVRVGDGLAFVRQTPDNTYDVVIIDTTDPAGPASKLFGEAFYKDVLRILKPDGICCNQGESIWLDLELIEKMSRFIRETGFASVQYALMHVPTYPCGSIGTLVCSKKAGVDVTKPLRPVEDMPFAKDLKYYDSEMHKASFALPRFARHINNSE”, for which the “soluble on expression in E. coli” value is reported as “soluble”.

Regarding “MAHHHHHHMPMILNEGWNIIQINLQEYTEKAFRTKYMETMDIQINASIRIRCIYFCDKLYNNDELKDEYKIFSKKKEKIKYTPPQCLNKPLKKMTIKSIITEGVSKGGENLPTEVEANKATTENEILEDSSTSGNSKKTDVEPTSQKNLQSIDMTEGIELYEESTDDPFFDEKNDGEGTPLAQVIGGEELLVGGEESTEVANNMTMDLTENTVTGTMNGPMKDQQDAEEAEHLAHIKTLEMDDTNVLYEDVNYETYNNDDH”, the “soluble on expression in E. coli” value is on record as “soluble”.

Turning to “MAHHHHHHMPPKGFKSNVSPEEAIAARKEKVELLSQQCAAVEKMLSICTDQGLRLNAEIAELERRIAETEVLTEQASRDLDVTVKIVTSYATSNLDQLQQRRLNMEKTAHEAEAENEALRAKIAELTGRREAEIEQWEARVEEQQALMNQKALDFGMQLKETLARRYATV”, the “soluble on expression in E. coli” value is listed as “not soluble”.

With “MAHHHHHHMPPKRYPNRLLVLCASINDVTAWPFWKFLQMKKIRGVTDMALLAFNSDGGSFEARIDGDKYQLKNYAKVRGYQHDMFESFVHRWHDPGRSYFVYGGHGMGDYVELEQNRVIAAGARARRRLRHACLRSSAL”, the “soluble on expression in E. coli” value was “not soluble”.

Regarding “MAHHHHHHMPPPLRSKAESVQREEVCQMVEPKRSMSVRDTLYGQLEFPPVIRILTNSPVVQRLRDLKQLGNSFYVYPGATHSRFEHSLGVCYLGMELYRSIVDGHREEHRDFGVPEIANLTREAAQKDMHCIGIAGLCHDLGHGPLSHLFESFVRSSARPEEVQLRKWSHEQASIMLLRKMWLENETELAELGFTESDLRYVELLINGLAPGKAWPDNVGRPKWARFTTEIIANKRSGLDVDKIDYIQRDSVACLGTPTFVSMSRLFQGARVVVGDNDETSIGYPDKLDGVIEEIFLARSHLHRIVYQHRVTKVIDLMTLDALRAAGDVFEVSNGKDGVMPLRSCVLHPDFYVHASDWIVLAILHGSNRTMAESWGSGASAEHRREKLAEACRILQRIHSRHLYTTIGSYRHSEQTLINAGRLNSVEGSSQEVKREVMIHELLSDIEVTNLDLSVKLREWSRQHNGMTAMEILQAEITQTAGDMDKKHNPVSATYFFNPRQSTHCRVEPHFSCNVTTTLFVKTGPVSSLVVVCRMPLTPQEKESLRVSFTSVADRLGKTDASSFSCTPMSQRGRAAESSQQAASVARDESAATPNHSLAGGERLTSSVSGGYPAAKRLRLDLDTQRSRRDDFDVDQSSEGVLQNDATTSSLELVTAAGYGQVGEKGQDDDDGEETDILSFS”, the “soluble on expression in E. coli” value is reported as “not soluble”.

Take “MAHHHHHHMPPPPPAPPPPPPPPPPPKATEGNSSSTVGGAASALFAEIRQGGDNITSRLRHVTDDQKAYKQNIQHGAVDFSDLDAKKAEAEAKRQQKQKQPETTAAEEPVTRLEGDKRWVVKHHKGTPSEPCKVTLEDVNMRHAVHIHGCDNTFVEVKGKVNTVSVVSCNKAQVILESVVSALEVLKSDSVDVTVRRFVPTAMVEKSTSVNLFLMDVEEAPNTEIVTACSSAVNVNFPTVEDPTDILERPLPEQFVSRIVRDNRGKYKIETKPNEVA”: the “soluble on expression in E. coli” value is “soluble”.

On to “MAHHHHHHMPPQRQCSHCEKEKAVLKRPRNGKLLCQRCFFNLFEAEVHETIMKEKLFKPGDIVACGASGGKDSTVLIHLMKLLNEQHEYGIQLLLLSIDEGIAGYRDDSLKTVHRNAEVYNLPLRVLSYKELYGWTMDEVVKVTGLRSSCTYCGVFRRQALDRGAAMLGATKVVTGHNADDLAETILMNILRGDLPRLSRCTSAITSGESLLPRVKPLKYAYEKEIVLYAHFKKLDYFTTECTYSKEAFRSEARTLLKNIEILQPRCILDTIRTGEQLRVKEQECATENPPSACTRCGYVTSQSLCRACVLLQGLNMNGPAVCVREQPQPQQQQQQQNVEVEGQ”, for which the “soluble on expression in E. coli” value is given as “not soluble”.

Consider “MAHHHHHHMPTEADLEKIRRERAARYQQLSEAEKPRVEPCPHCHELPYKKEVCPETGIFHNLERHTIVGGAVVQSNIVRSSELMEAIDRSRIRWVESRTQMVRADAVSLNLFQSFVRQLDWSLQRYGILYGKYDASLNLIEVHAIYEPEQHGDAYTFHYLPDKRLPNVDRIAALLGLRRVGAVCTHPPRDIEEMVLSSREILLCAREQSRFGDECVLLTMSPSLTTGRIECQAWQTSPQAVHFYRLGVLREKSDDYSDLESAKYVHSSIPLEVAQQETDEKGHPRVVTMAPSHDIDTRWFTSYVAVQQFESPVVRNLFMRVSRPGMEPPAMINLRNYMEDPKRRKVPLIEKLADFHVLIFLAESVFSVADDMPVIIGAITKQRPAEDAMHYGEVLKLYLEQ”, for which the “soluble on expression in E. coli” value is reported as “soluble”.

Turning to “MAHHHHHHMPTEAHGWAALSAKSKLEPFAFQRRDVGPDDVVIAIAYCGVCHSDVHQARDEWDGSTFPMVPGHEIVGHVTKVGSEVTKYKAGDRVGVGCMVDSCMKCRQCERGLEQYCVNGASFTYNSTQQDKKTPTFGGYSDHVVVREHFVVSIPDNLDLCAAAPLLCAGVTTFSPLRYWGVKKGTRVGVVGLGGLGHMAVKLANAMGAEVTVFTRSSNKVEEAENLGAHHVVNTNNEQEMNSIQGTLDVIVDTVGMSHDLRPYMMTLDIDGKLALVGMPEHAHPPLDPRRIIASRQCVGGSNIAGMPETQELLNFCGEHNITATVEKIGIEYINEAYERILASDVRYRFVIDMASLKKE”, the “soluble on expression in E. coli” value is “soluble”.

Regarding “MAHHHHHHMQRPTTARYRGRRESSAASRKLAKKPHSLMDELPPCPPSPYKWKQHRQHDGHHISVTAAFIRGRRNMRVGAAAISAIAASPFPVDGATKAAKSSPAFPMRALVVAGTHDSDAVEGNNDDEAIFELFFREAQLHYHISAEENMRNHLLAGEEVAFTNLMIEALQARAELLAGDEAAELVIRDAQKRAQERQAMMKEIEKTVALRLHDERMAQLLAMEFEALLPAHGAGCERILREEAADLGEVFRWHKENRPLGAGCFIEAPVEDSRLTDARRGTGAAKFLESRLALAKGSRRASCARSSRVYLAQLLQKGTSSRCSAAALGPLAVAAGEAPASLLDGTLPVMDEALFQEEGRARLQAAKDQRYLALRGLRAVSDIRQAAAAAREKVLAEEAMCWMQIARLEVDGIYAAQEATRERKKREASADAATTHRAAQKKEVKERLLRQRGRPVPEPDNSAGGDARVQPRISGKSTEEGAQPPKDQAAITEAGALEQPSPRSSSSTVPDNSPLCGALAEGASTTAEANVDAVDELAYLRFVTGEITDPDACKQLSALVSSEVDEEVEKAV”, the “soluble on expression in E. coli” value was “soluble”.

Turning to “MAHHHHHHMRFLKTLFSLNCLASVGFYKKFACKNLFFENSFIRKDLHTYFIDKRKYFHLNKKDICTNTIIIPFYKDNYSYIFYDDKEEGIVVDPADYNIINDISKKENIKIKHVLCTHKHSDHNNGNQYYYEKNINVYGIKEYDNKYINQDISNLTHFQINNFKINIFLSNFHSKNQVSYLIENDNNKSKKNIFFTGDFLFISGIGKNFEQDNEDLYNSINKLKLLDKQNIYIFCGHEYTLDNLKFALTVDSTNKNLLSFYDHVVNSNKNYPTVPTLLEHEYLYNPFLRCDQNDVRKSIDLYAKKKNIKIQQESDYIVILRLMKDNFKAS”, the “soluble on expression in E. coli” value was “not soluble”.

With “MAHHHHHHMRGWTAIRSPQLPTLHHRTVVEHTRPQKKKAKKKHGGRVRLCVWRCRCLPALAAKKTKQEGKKCVLRPTSPRRTPTRHGSLSAPFVAAPPHACSRRGAQGRRHERVGGCASGAVGRETHGTPHRKSAEETIKRGKSRKKKKTSIVIAPKSKKEGMWGVRELKRTN”, the “soluble on expression in E. coli” value is reported as “soluble”.

Take “MAHHHHHHMRKEEMNRNFQNASCKEDNYIKAWLKQTENPEFYKNLNDLDDQSYTNEFVKVVDFNNFNSNFINNMMEEPFGDEFSKQKKRKAYSLFYSNEIGPNNEENYDLKNIYTSFDDSDVKYLKSLDKTPSGNMKDRVKGRYKDEHMSIKKLKRENICNENNEPIFPNNIMMDNSPYYKFRHSNKKPSYGSESTNEFFNNYDFETPIKILSSKKKSYDFKNRKDNSTNTTKENSSRENVSSNNSETKRTINFSNKTDDFNDIPFNSDNEYISSPEYMDHEQNTKYINKKQREVNFLGQKLEYKVVGNVINCSKNHPQFTLF”: the “soluble on expression in E. coli” value is listed as “not soluble”.

As for “MAHHHHHHMRNSFFPMLCEKQSTPELEAMPLYLPDTVVLQLHRHDGEAEFADYMDANSLTFVALGDAERPALCGIDATAQLHYEGAQRTLVSAAGIVSGIRRRRLRVPFGMSELSELLRRAYNTEKGNRNNSLTGSTETVLLTHLFSDAVWAEESFHCLSTTRRVGNILGSTGIGSATRDLAVERWRLDQDIMELRDELMIARTVYDYRHCGYESNRSISGMEEEGMKRVNAIQSNREEERKWQLSVFCERAKHEAEKMIKELEQRGGATLDELQKTLEAKKRESSALQADRENRIWEYEHTLEKIRTRKQDEESASERLRQAMQQLEQELSLRQSAIETREQQLEMVQLDGARGREAIMRERHSIEAVSPAEAVDPSD”, the “soluble on expression in E. coli” value is reported as “not soluble”.

(Values after the DeepSol protein solubility set.)
